Patent publication US20090062187A1, “Use of Hmgb1 for Wound Healing” (priority 2004, published 2009)
“Also recorded” adds a separate entry of the source.

B1: HMGB1 (protein, UniProt P09429 1-215, looked up)
High mobility group protein B1: MGKGDPKKPRGKMSSYAFFVQTCREEHKKKHPDASVNFSEFSKKCSERWKTMSAKEKGKFEDMAKADKARYEREMKTYIPPKGETKKKFKDPNAPKRPPSAFFLFCSEYRPKIKGEHPGLSIGDVAKKLGEMWNNTAADDKQPYEKKAAKLKEKYEKDIAAYRAKGKPDAAKKGVVKAEKSKKKKEEEEDEEDEEDEEEEEDEEDEDEEEDDDDE
notes: purified protein; cytokine released from monocyte-macrophage and necrotic cells, ligand of RAGE

Assays:
normal CD1 mice = experiment: Wound closure after full-thickness excised wound in normal CD1 mice; assay type: in vivo; conditions: for wound area reduced by % of the initial size / wound closure / healing rate vs vehicle: normal mice; for wound area reduced by % of the initial size: GL 250 μg/mouse topically every two days; for wound closure / healing rate vs vehicle: GL 250 μg/mouse topically in wound area
diabetic CD1 mice = experiment: Wound closure after full-thickness excised wound in streptozotocin-diabetic CD1 mice; assay type: in vivo
Protocol: CD1 male mice were obtained from Charles River (Calco, LC, Italy). Mice were rendered diabetic by intraperitoneal injection of streptozotocin (Sigma-Aldrich, St Louis, Mo., USA) at 1.2 mg/30 g weight/day for 5 consecutive days. After 7 days, glycemia was measured and animals with glycemia of 200 to 400 mg/dl were selected for further studies. Mice were anesthetized with intraperitoneal injection of 2.5% Avertin (100% Avertin: 10 g of 2,2,2-tribromoethyl alcohol and 10 ml of tert-amyl alcohol, Sigma). Their dorsum was clipped free of hair and a full thickness wound of 3.5 mm diameter was created using a biopsy punch.
HMGB1 treatment was performed directly in the wound area by injecting 200 ng, 400 ng or 800 ng of purified protein (13) in 20 μl of saline solution at time immediately after wound. Control groups received 20 μl of saline solution in the wound. Glycyrrhyzin, GL (12) was administered topically in the wound area every two days from day 0 to day 14 after wound creation. The concentration used for each administration was 250 μg/mouse in 30 μl of PBS. Control mice received vehicle (PBS).
Animals were photographed at day 0, 3, 5, 6, 7, 10, and 14 after wound. Pictures were digitally processed and areas of wounds were calculated using the KS300 system (Zeiss, Jena GmbH, Germany). For each sample the percentage of wound closure was calculated as the ratio: […]
Where time 0 is the time immediately after the wound. The groups included 6 to 10 animals. Results are presented as mean±standard error. Statistical significance between two measurements was evaluated by unpaired Student's t test.

[1] = system: diabetic human fibroblasts; experiment: Chemotaxis assay (modified Boyden chamber), diabetic human fibroblasts; assay type: cell-based; conditions: HMGB1 200 ng/ml
Protocol: (§1) FIG. 9: Effect of HMGB1 on human fibroblasts and keratinocytes migration. Normal (A) and diabetic (B) fibroblasts were obtained from human biopsies. 0.4×10^6 cells/ml were placed in upper compartment of the modified Boyden chambers. HMGB1 (200 ng/ml) or PDGF (15 ng/ml) was added to the lower compartment and incubated for 6 hrs at 37° C. (C) Hacat cells were obtained from ATCC and migration experiments performed as described in (A-B). After staining with Giemsa solution, migrated cells were quantified by counting nuclei in five random microscope fields (40×). The data are expressed as migration index (fold increase in number of migrated cells relative to number of migrated cells in the absence of HMGB1 or PDGF) and are mean±SD of at least 4 independent experiments performed in triplicate. Statistical significance was evaluated by unpaired Student's t test. […]
(§2) The lower compartment of each chamber was filled with 28 μl DMEM with 0.1% BSA. […] Cells on five random fields on the lower face of the filter were counted at 40× magnification and migration index was calculated by dividing the number of migrated cells in the presence of chemoattractants by the cells migrated in response to DMEM with 0.1% BSA.

normal human fibroblasts = experiment: Chemotaxis assay (modified Boyden chamber), normal human fibroblasts; assay type: cell-based; conditions: HMGB1 200 ng/ml
Protocol: as §1, §2

[2] = system: keratinocytes (HaCat cell line); experiment: Chemotaxis assay (modified Boyden chamber), keratinocytes; assay type: cell-based, human; conditions: HMGB1 200 ng/ml
Protocol: FIG. 9: Effect of HMGB1 on human fibroblasts and keratinocytes migration. Normal (A) and diabetic (B) fibroblasts were obtained from human biopsies. 0.4×10^6 cells/ml were placed in upper compartment of the modified Boyden chambers. HMGB1 (200 ng/ml) or PDGF (15 ng/ml) was added to the lower compartment and incubated for 6 hrs at 37° C. (C) Hacat cells were obtained from ATCC and migration experiments performed as described in (A-B). After staining with Giemsa solution, migrated cells were quantified by counting nuclei in five random microscope fields (40×). The data are expressed as migration index (fold increase in number of migrated cells relative to number of migrated cells in the absence of HMGB1 or PDGF) and are mean±SD of at least 4 independent experiments performed in triplicate. Statistical significance was evaluated by unpaired Student's t test.
Hacat human cells were obtained according to (14). […]
as §2

| Molecule | wound area reduced by % of the initial size (normal CD1 mice; day 3) | wound area reduced by % of the initial size (normal CD1 mice; day 5) | wound area reduced by % of the initial size (normal CD1 mice; day 6) | wound area reduced by % of the initial size (normal CD1 mice; day 7) | wound closure / healing rate vs vehicle (normal CD1 mice) | wound closure / healing rate vs vehicle (normal CD1 mice; listed as glycyrrhizin) | wound closure vs saline (diabetic CD1 mice; glycyrrhizin 250 μg in the wound area) | chemotactic effect (migration) [1] | wound closure (normal CD1 mice; normal CD1 mice, HMGB1 200 ng in 20 μl injected in wound area immediately after wounding, vs saline) | percentage of wound closure (normal CD1 mice; normal CD1 mice, HMGB1 200 ng, day 3 after wounding) | percent of wound closure vs saline (normal CD1 mice; normal CD1 mice, HMGB1 200 ng, day 5, p<0.03) | percentage of wound closure (diabetic CD1 mice; HMGB1 200 ng, day 3 after wounding) | percentage of wound closure (diabetic CD1 mice; HMGB1 200 ng, day 5) | percentage of wound closure (diabetic CD1 mice; HMGB1 200 ng, day 6) | healing rate vs saline (diabetic CD1 mice; HMGB1 200 ng, p<0.03) | complete wound closure evident by (diabetic CD1 mice; HMGB1 200 ng, same in saline group) | wound closure compared to lower dose (200 ng) (diabetic CD1 mice; HMGB1 400 ng in 20 ul, 3 days after wounding) | wound closure compared to dose of 200 ng (diabetic CD1 mice; HMGB1 800 ng) | chemotactic effect (migration) (normal human fibroblasts) | chemotactic effect (migration) [2] |
| --- | --- | --- | --- | --- | --- | --- | --- | --- | --- | --- | --- | --- | --- | --- | --- | --- | --- | --- | --- | --- |
| CC1(C)[C@@H](O[C@H]2O[C@H](C(=O)O)[C@@H](O)[C@H](O)[C@H]2O[C@@H]2O[C@H](C(=O)O)[C@@H](O)[C@H](O)[C@H]2O)CC[C@]2(C)[C@H]3C(=O)C=C4[C@@H]5C[C@@](C)(C(=O)O)CC[C@]5(C)CC[C@@]4(C)[C@]3(C)CC[C@@H]12 [GL, Glycyrrhizin] | 15±3.5% | 38.7±6% | 61.2±5.9% | 73.3±4.5% | slowed down wound closure | significantly lower | No significant differences; also recorded: did not significantly modify wound closure |  |  |  |  |  |  |  |  |  |  |  |  |  |
| B1 |  |  |  |  |  |  |  | exhibited a chemotactic effect | increased wound closure | 30.5±8.5% | significantly higher | 47.5±15.8% | 66.5±13% | 72.2±9% | significantly higher | ≤ 14 days | larger wound closure | same effect | exhibited a chemotactic effect | exhibited a chemotactic effect |
